# From US20120076782A1 (MorphoSys, published 2012)
# Read-outs that look alike come from different tables or passages of the source.
# B1: MOR03077 human IgG1 (antibody, V domains shown)
# VH: QVQLVQSGAEVKKPGASVKVSCKASGYTFTSYSINWVRQAPGQGLEWMGYIDPNRGNTNYAQKFQGRVTMTRDTSISTAYMELSSLRSEDTAVYYCAREYIYFIHGMLDFWGQGTLVTVSS
# VL: DIVMTQSPLSLPVTPGEPASISCRSSQSLLFIDGNNYLNWYLQKPGQSPQLLIYLGSNRASGVPDRFSGSGSGTDFTLKISRVEAEDVGVYYCQQYSSKSATFGQGTKVEIKR
# notes: also called MAb#1
# B2: MOR03077 Fab (Fab, V domains shown)
# VH: B1 VH
# VL: B1 VL
# notes: also called antibody no
# B3: MOR03080 human IgG1 (antibody, V domains shown)
# VH: QVQLVESGGGLVQPGGSLRLSCAASGFTFSSYGMHWVRQAPGKGLEWVSNIYSDGSNTFYADSVKGRFTISRDNSKNTLYLQMNSLRAEDTAVYYCARNMYRWPFHYFFDYWGQGTLVTVSS
# VL: DIELTQPPSVSVAPGQTARISCSGDNIGNKYVSWYQQKPGQAPVVVIYGDNNRPSGIPERFSGSNSGNTATLTISGTQAEDEADYYCSSYDSSYFVFGGGTKLTVLG
# notes: also called MAb#3
# B4: MOR03080 Fab (Fab, V domains shown)
# VH: B3 VH
# VL: B3 VL
# notes: also called antibody no
# B5: MOR03080 human-mouse chimeric IgG2a (antibody, V domains shown)
# VH: B3 VH
# VL: B3 VL
# notes: Chimeric IgG2a: human variable regions of MOR03080 and murine constant regions; also called MAb#3 (chimeric: human variable domaine/murine Fc 2a); mu03080
# B6: MOR03100 human IgG1 (antibody, V domains shown)
# VH: QVQLVESGGGLVQPGGSLRLSCAASGFTFSSNGMSWVRQAPGKGLEWVSNISYLSSSTYYADSVKGRFTISRDNSKNTLYLQMNSLRAEDTAVYYCARFYGYFNYADVWGQGTLVTVSS
# VL: DIELTQPPSVSVAPGQTARISCSGDNIGHYYASWYQQKPGQAPVLVIYRDNDRPSGIPERFSGSNSGNTATLTISGTQAEDEADYYCQSYDYLHDFVFGGGTKLTVLG
# notes: also called LAC 3100; MAb#4
# B7: MOR03100 Fab (Fab, V domains shown)
# VH: B6 VH
# VL: B6 VL
# notes: also called LAC 3100; antibody no; 3100
# B8: MOR03079 human IgG1 (antibody, V domains shown)
# VH: QVQLVESGGGLVQPGGSLRLSCAASGFTFSNYGMHWVRQAPGKGLEWVSNIRSDGSWTYYADSVKGRFTISRDNSKNTLYLQMNSLRAEDTAVYYCARRYWSKSHASVTDYWGQGTLVTVSS
# VL: DIQMTQSPSSLSASVGDRVTITCRASQDISAFLNWYQQKPGKAPKLLIYKVSNLQSGVPSRFSGSGSGTDFTLTISSLQPEDFATYYCQQAYSGSITFGQGTKVEIKR
# notes: also called MAb#2
# B9: MOR03079 human-mouse chimeric IgG2a (antibody, V domains shown)
# VH: B8 VH
# VL: B8 VL
# notes: Chimeric IgG2a: human variable regions of MOR03079 fused to murine Fc gamma 2a constant regions; also called MAb#2 (chimeric: human variable domaine/murine Fc 2a); mu03079
# B10: MOR03079 Fab (Fab, V domains shown)
# VH: B8 VH
# VL: B8 VL
# notes: also called antibody no
# Legend:
# CD20 on cell lines = CD20 on cell lines (UniProt P11836); experiment: cell-based or functional assay
# [1] = target: T1, human CD38 on cells or tissue (human, UniProt P28907 1-300); experiment: cell-based or functional assay
# [2] = target: T1, human CD38 on cells or tissue
# [3] = target: T1, human CD38 on cells or tissue; experiment: FACS Scatchard, IgG1 on RPMI8226 MM cells; mean of at least 2 determinations
# [4] = target: T1, human CD38 on cells or tissue; experiment: cell-based or functional assay; remark: listed apart in the source
# bovine serum albumine [5] = target: T2, bovine serum albumine (bovine, UniProt P02769 25-607); experiment: ELISA; antigen coated at 5 µg/ml, anti-human Fab alkaline phosphatase conjugate, fluorescence Ex/Em 430/535 nm
# T2 construct: Control antigen coated on ELISA wells; also called BSA
# [6] = target: T3, hCD38 Fc fusion protein (aa 45-273) (human, UniProt P28907 45-273); experiment: as above
# T3 construct: Making of this construct is not described; also called C-terminally deleted format; not shown: Fc part (not described for this construct)
# [7] = target: T1, human CD38 on cells or tissue; experiment: cell-based or functional assay; remark: listed apart in the source
# [8] = target: T1, human CD38 on cells or tissue; experiment: cell-based or functional assay; remark: listed apart in the source
# [9] = target: T1, human CD38 on cells or tissue; experiment: cell-based or functional assay; remark: listed apart in the source
# [10] = target: T4, hCD38 Fc fusion protein (aa 45-300) (human, UniProt P28907 45-300); experiment: SPR (Biacore 3000), Fab over directly immobilized CD38-Fc fusion protein; mean of at least 2 determinations
# T4 construct: produced in HEK293; also called full-length hCD38 Fc-fusion protein; soluble CD38-Fc
# bovine serum albumine [11] = target: T2, bovine serum albumine; experiment: ELISA; antigen coated at 5 µg/ml, anti-murine Fab alkaline phosphatase conjugate, fluorescence Ex/Em 430/535 nm
# [12] = target: T3, hCD38 Fc fusion protein (aa 45-273); experiment: as above
# [13] = target: T5, cynomolgus monkey CD38 on cells or tissue (cynomolgus monkey, UniProt Q5VAN0 1-301); experiment: FACS on lymphocytes; IHC on spleen, lymph-nodes
# T5 construct: whole, on cells
# T5 sequence (Q5VAN0 whole entry): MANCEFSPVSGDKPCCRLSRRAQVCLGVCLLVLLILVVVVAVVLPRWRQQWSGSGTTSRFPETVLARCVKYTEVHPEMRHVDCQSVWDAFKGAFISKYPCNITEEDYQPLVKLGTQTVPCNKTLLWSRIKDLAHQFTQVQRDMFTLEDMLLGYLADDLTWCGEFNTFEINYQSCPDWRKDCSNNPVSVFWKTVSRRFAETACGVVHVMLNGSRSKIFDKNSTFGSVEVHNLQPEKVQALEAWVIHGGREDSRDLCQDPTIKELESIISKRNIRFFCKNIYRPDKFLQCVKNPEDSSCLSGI
# T2 sequence (P02769 25-607 limits assumed): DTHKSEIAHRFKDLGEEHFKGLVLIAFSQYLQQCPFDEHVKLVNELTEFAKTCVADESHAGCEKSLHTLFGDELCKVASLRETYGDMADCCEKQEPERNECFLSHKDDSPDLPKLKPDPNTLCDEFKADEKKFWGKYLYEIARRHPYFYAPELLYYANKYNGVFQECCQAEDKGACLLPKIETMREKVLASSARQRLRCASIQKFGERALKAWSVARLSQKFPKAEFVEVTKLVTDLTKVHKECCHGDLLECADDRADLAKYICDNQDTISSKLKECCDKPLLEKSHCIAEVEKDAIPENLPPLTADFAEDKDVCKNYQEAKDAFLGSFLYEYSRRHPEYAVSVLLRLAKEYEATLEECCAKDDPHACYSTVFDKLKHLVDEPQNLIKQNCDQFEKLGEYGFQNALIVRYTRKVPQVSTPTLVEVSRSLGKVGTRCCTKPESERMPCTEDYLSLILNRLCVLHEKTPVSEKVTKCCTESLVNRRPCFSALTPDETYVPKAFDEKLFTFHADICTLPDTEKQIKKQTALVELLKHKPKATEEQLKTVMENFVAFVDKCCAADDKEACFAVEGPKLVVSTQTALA
# CD20 on cell lines, sequence (P11836 whole entry): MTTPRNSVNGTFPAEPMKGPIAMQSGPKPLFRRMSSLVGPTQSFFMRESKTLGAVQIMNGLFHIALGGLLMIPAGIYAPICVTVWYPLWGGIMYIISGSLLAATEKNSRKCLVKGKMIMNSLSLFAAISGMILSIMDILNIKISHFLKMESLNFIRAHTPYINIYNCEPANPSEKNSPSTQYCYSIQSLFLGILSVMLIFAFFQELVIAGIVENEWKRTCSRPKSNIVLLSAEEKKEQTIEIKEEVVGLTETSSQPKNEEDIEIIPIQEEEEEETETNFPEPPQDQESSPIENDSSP
molecule,measurement,setting,value
Rituximab (antibody),"Namalwa (max. spec. Killing), o/n incubation",CD20 on cell lines,< 1%
same,"Raji (max. spec. killing), o/n incubation",CD20 on cell lines,9%
chimeric OKT10 (antibody),"ADCC EC50 [nM], LP-1 target cells",[1],5.23 nM
same,"ADCC EC50 [nM], RPMI8226 target cells",[1],4.1 nM
same,"CDC EC50 [nM], CHO-transfectants",[1],9.3 nM
same,"max. specific killing in ADCC, NCI-H929 cells (MM), E:T 30:1, 5 µg/ml; column PC",[2],54%
same,Kd,[3],8.28 nM
B1,"MM-samples (max. spec. Killing), 4 hrs incubation",[4],21%
same,"Namalwa (max. spec. Killing), o/n incubation",[4],11%
same,"Raji (max. spec. killing), o/n incubation",[4],21%
same,binding result,bovine serum albumine [5],no binding (tested: 10 µg/ml)
same,binding result,[6],no binding (tested: 10 µg/ml)
same,Kd,[3],0.89 nM
same,"ADCC EC50 [nM], LP-1 target cells",[7],0.6 nM
same,"ADCC EC50 [nM], RPMI8226 target cells",[7],0.08 nM
same,"CDC EC50 [nM], CHO-transfectants (mean from 2 determinations)",[7],0.8 nM
same,"CDC EC50 [nM], CHO-transfectants (mean from 3 determinations)",[7],0.94 nM
same,"ADCC EC50 values in [nM], MM Samples (purified primary MM-cells)",[8],0.08 nM
same,"CDC EC50, LP-1 cells",[9],5.6 nM
same,"CDC EC50 on hCD38-transfectants, fold better than reference antibody chOKT10",[9],3 fold
B2,Kd,[10],56 nM
B3,"MM-samples (max. spec. Killing), 4 hrs incubation",[4],4%
same,"Namalwa (max. spec. Killing), o/n incubation",[4],< 1%
same,"Raji (max. spec. killing), o/n incubation",[4],4%
same,binding result,bovine serum albumine [5],no binding (tested: 10 µg/ml)
same,binding result,[6],no binding (tested: 10 µg/ml)
same,Kd,[3],0.47 nM
same,"ADCC EC50 [nM], LP-1 target cells",[7],0.17 nM
same,"ADCC EC50 [nM], RPMI8226 target cells",[7],0.05 nM
same,"CDC EC50 [nM], CHO-transfectants (mean from 2 determinations)",[7],3.2 nM
same,"CDC EC50 [nM], CHO-transfectants (mean from 3 determinations)",[7],2.93 nM
B4,Kd,[10],27.5 nM
B5,binding result,bovine serum albumine [11],no binding (tested: 10 µg/ml)
same,binding result,[12],no binding (tested: 10 µg/ml)
same,binding result,[13],binds
B6,binding result,bovine serum albumine [5],no binding (tested: 10 µg/ml)
same,binding result,[6],no binding (tested: 10 µg/ml)
same,Kd,[3],6.31 nM
same,"ADCC EC50 [nM], LP-1 target cells",[7],1 nM
same,"ADCC EC50 [nM], RPMI8226 target cells",[7],0.28 nM
same,"CDC EC50 [nM], CHO-transfectants (mean from 2 determinations)",[7],10.9 nM
same,"CDC EC50 [nM], CHO-transfectants (mean from 4 determinations)",[7],13.6 nM
B7,Kd,[10],10 nM
B8,"MM-samples (max. spec. Killing), 4 hrs incubation",[4],24%
same,"Namalwa (EC50), killing by cross-linking",[4],0.08 nM
same,"Namalwa (max. spec. Killing), o/n incubation",[4],18%
same,"Raji (EC50), killing by cross-linking",[4],0.08 nM
same,"Raji (max. spec. killing), o/n incubation",[4],21%
same,binding result,bovine serum albumine [5],no binding (tested: 10 µg/ml)
same,binding result,[6],no binding (tested: 10 µg/ml)
same,Kd,[3],0.6 nM
same,"ADCC EC50 [nM], LP-1 target cells",[7],0.09 nM
same,"ADCC EC50 [nM], RPMI8226 target cells",[7],0.04 nM
same,"CDC EC50 [nM], CHO-transfectants",[7],0.41 nM
same,"CDC EC50, LP-1 cells",[9],0.55 nM
B9,binding result,bovine serum albumine [11],no binding (tested: 10 µg/ml)
same,binding result,[12],no binding (tested: 10 µg/ml)
B10,Kd,[10],2.4 nM
